# Reference: patent US20040143095A1 (RESEARCH DEVELOPMENT FOUNDATION, published 2004)
# Where no end group is shown, it is not given here.
# T1: human CRF receptor type 1 (human, UniProt P34998 24-415)
# T1 sequence (looked up): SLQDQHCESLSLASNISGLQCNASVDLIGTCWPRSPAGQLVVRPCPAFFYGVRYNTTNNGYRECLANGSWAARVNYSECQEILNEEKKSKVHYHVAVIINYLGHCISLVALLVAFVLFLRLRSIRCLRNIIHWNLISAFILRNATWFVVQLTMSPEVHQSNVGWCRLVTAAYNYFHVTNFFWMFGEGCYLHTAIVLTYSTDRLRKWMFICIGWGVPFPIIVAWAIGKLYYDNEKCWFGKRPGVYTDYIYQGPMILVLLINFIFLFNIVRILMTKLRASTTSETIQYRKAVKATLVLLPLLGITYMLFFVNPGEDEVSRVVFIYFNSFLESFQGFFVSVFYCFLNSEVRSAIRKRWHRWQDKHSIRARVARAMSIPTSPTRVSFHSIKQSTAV
# T2: endogenous CRF-R1 of primary rat anterior pituitary cells (rat, UniProt P35353 24-415)
# T2 sequence (looked up): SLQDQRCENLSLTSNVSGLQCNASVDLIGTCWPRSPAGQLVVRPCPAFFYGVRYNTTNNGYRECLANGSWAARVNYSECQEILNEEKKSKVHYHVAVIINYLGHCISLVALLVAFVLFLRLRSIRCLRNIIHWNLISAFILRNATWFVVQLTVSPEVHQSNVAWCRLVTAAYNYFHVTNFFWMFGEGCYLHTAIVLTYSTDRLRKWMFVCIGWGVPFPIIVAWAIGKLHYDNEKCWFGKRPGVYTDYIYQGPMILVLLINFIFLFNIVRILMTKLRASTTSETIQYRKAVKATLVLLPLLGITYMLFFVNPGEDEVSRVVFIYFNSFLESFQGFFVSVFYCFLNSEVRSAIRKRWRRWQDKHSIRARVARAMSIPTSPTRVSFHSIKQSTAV
# Assays:
# [1] = biological target: T1, human CRF receptor type 1; assay: cell-based or functional assay
# [2] = biological target: T2, endogenous CRF-R1 of primary rat …; assay: cell-based or functional assay
Binder,"cAMP in CHO cells stably expressing hCRF-R1 (EC50, nM) [1]","cAMP accumulation in primary rat anterior pituitary cells, EC50 [2]"
"VILSLDVPIGLLRILLEQARYKAARNQAATNAQILAHV (peptide, UniProt Q99ML8 73-110, looked up) [Urocortin II (mouse)]",> 100 nM,–
"DDPPLSIDLTFHLLRTLLELARTQSQRERAEQNRIIFDSV (peptide, UniProt P55090 81-120, looked up) [Urocortin (rat)]",–,2.3 nM
"IVLSLDVPIGLLQILLEQARARAAREQATTNARILARV (peptide, UniProt Q96RP3 72-109, looked up) [Urocortin II (human)]",> 100 nM,–

# Second part, the binder after the results:
"cAMP in CHO cells stably expressing hCRF-R1 (EC50, nM) [1]","cAMP accumulation in primary rat anterior pituitary cells, EC50 [2]",Binder
> 100 nM,–,FTLSLDVPTNIMNILFNIDKAKNLRAKAAANAQLMAQI-NH2 [Urocortin III (mouse)]
> 100 nM,–,FTLSLDVPTNIMNLLFNIAKAKNLRAQAAANAHLMAQI-NH2 [Urocortin III (human)]
